B1: D4-10-N1 germline-reverted (IGHV4-39) (antibody, V domains shown)
VH: QLQLQESGPGLVKPSETLSLTCTVSGGSISSSSYYWGWIRQPPGKGLEWIGSIYYSGSTYYNPSLKSRVTISVDTSKNQFSLKLSSVTAADTAVYYCAKPKSRDRGGPGDDYFGMDVWGQGIMVTVSS
VL: DIQLTQSPSFLSASVADRVTITCRASQAVRSSLAWYQQKPGKAPQLLIYSASTLENGVSSRFSGSGPGTEFTLTISSLQPEDVGTYYCQQLNTYPFTFGPGTKVEIK
B2: D2-06-N2 (IGHV1-69*01 germline-reverted) (antibody, V domains shown)
VH: QVQLVQSGAEVKKPGSSVKVSCKASGGTFSSYAISWVRQAPGQGLEWMGGIIPIFGTANYAQKFQGRVTITADESTSTAYMELSSLRSEDTAVYYCARDRPPGAQFDTWGQGTLVTVSS
VL: not shown

Assays:
[1] = biological target: recombinant full-length IsdB (Staphylococcus aureus strain USA300, UniProt Q2FHV2 41-613); assay: SPR
IsdB NEAT2 domain = IsdB NEAT2 domain (Staphylococcus aureus strain USA300); assay: SPR

Binder | Kd [1] | Kd (IsdB NEAT2 domain)
B1 | 90.7 nM | 
B2 |  | 24.1 nM

Source: article PMC5120205 (2016)
